T1: rCf48 (recombinant Flag-Cf48 micropeptide) (mouse, UniProt Q3UR78 29-90)
T1 sequence: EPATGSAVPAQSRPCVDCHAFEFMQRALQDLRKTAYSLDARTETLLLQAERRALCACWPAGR


Biological target: T1, rCf48 (recombinant Flag-Cf48 …)
Experiment: EMSA; Thermo LightShift Chemiluminescent RNA EMSA kit (20158); buffer, salt, pH and temperature not given in the material
Details: protein: recombinant; tags: FLAG (Fc tag removed with enterokinase); label: biotin

Row | Binder | binding result
1 | Acta2 mRNA 3'-most 132 nt WT probe (ssRNA) RNA: GGUGACCAGAUAGGUAAAAAACAAUUUUACGUGUAUUUAAAAUUUGGCAAGUAAUAUGGUUUUAUUAAAAUCACAUCUUUUGUAUUAAAGCAUACACACGUGCAUGGAUAUGCAUGCGUGACUUUUAACUUG | binds
2 | Serpine1 mRNA 3'-most 134 nt WT probe (ssRNA) RNA: CCAAAUGUGGGGUCACAUGGUCUUGAAUUUUGUGGGGUACAUAUGCCUUUGUUUGUUUGUUUUCACUUUUGAUAUAUAAACAGGUAAAUGUGUUUUUAAAAAAUAAUAAAAAUAGAGAAUAUGCAGACAAAAAAA | binds
